# Reference: patent publication US20260248972A1, “DUAL RECEPTOR TARGETING RADIOLIGANDS AND USES THEREOF RELATED APPLICATIONS” (priority 2022, published 2026)
# *1 amine or outer side, *2 acyl side, *3 side chain or, on linkers, in order; H or OH if unused. Where a SMILES comes first, the peptide text is derived from it. Bridges are numbered along the chain shown (N, C = ends). Side-chain parts run from the residue outwards. [ ]: non-standard residue; d: D form. The star is where a group is joined. X1 = CC(C)(C)C(=O)CN1C(=O)[C@H](N*)CN(C2CCCCC2)c2ccccc21; DOTA = O=C(O)CN1CCN(CC(=O)O)CCN(CC(=O)*)CCN(CC(=O)O)CC1; 3Abz = Nc1cccc(C(=O)O)c1; CO = O=C([*:1])[*:2]
# Tests used:
# [1] = molecular target: T1, SSTR2 (Rattus norvegicus, UniProt P30680); assay: Competitive cell-binding assay on AR42J cells with 125I-C1 as competitive ligand; conditions: based on mean IC50, C-1 = 1.00
# T1 construct: host or cells: AR42J cells
# T1 sequence (P30680 whole entry): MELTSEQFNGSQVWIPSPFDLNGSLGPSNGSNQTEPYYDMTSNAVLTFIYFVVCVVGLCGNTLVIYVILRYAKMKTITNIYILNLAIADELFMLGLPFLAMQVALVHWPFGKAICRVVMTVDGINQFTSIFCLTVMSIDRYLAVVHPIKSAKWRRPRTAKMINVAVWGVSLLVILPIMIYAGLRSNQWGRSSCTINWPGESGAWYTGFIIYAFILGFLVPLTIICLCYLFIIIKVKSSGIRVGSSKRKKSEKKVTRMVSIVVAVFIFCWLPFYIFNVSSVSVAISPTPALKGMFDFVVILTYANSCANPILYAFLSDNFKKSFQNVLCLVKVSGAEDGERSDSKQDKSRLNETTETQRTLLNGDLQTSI
# Method: AR42J cells (ATCC) were maintained in RPMI-1640 medium (Gibco) supplemented with 15% fetal bovine serum (Gibco) and 1% penicillin-streptomycin (BI) at 37° C. in a humidified incubator with 5% CO2. The culture medium was replaced with fresh medium every 2-3 days. Experiments were performed with cells at 70-80% confluence.
# Binding Affinity Tested by Using ^125I-Labeled Competitive Ligands.
# The binding affinities of test compounds were determined by a competitive cell-binding assay using ^125I-C1 and ^125I-C3 as the competitive ligand. The suspended AR42J cells at a density of 1~3×10^6 cells/mL in binding buffer (RPMI-1640 medium supplemented with 0.25% bovine serum albumin) were transferred to a MultiScreen-DV Filter Plate (Millipore) with 100 μL per well except the blank group where the binding buffer was used instead. The cells were then incubated with ^125I-C1 and ^125I-C3 (0.02 μCi/well) in the presence of increasing concentrations (0-10000 nM) of test compounds at 37° C. for 1 h (n=3). The final volume in each well was maintained at 200 μL and insufficient volume was adjusted by the binding buffer. After the 1 h incubation, unbound ^125I-competitive ligands were removed by filtration using a Multiscreen vacuum manifold (Millipore) followed by rinses with the binding buffer (3 times). The filters were collected, and their radioactivity were individually measured by γ counter (2480 WIZARD2, PerkinElmer). The best-fit IC50value (inhibitory concentration when 50% of the bound ^125I-C1 and ^125l I-C3 on cells were displaced) of test compounds were calculated by fitting the data with nonlinear regression using GraphPad Prism 8.0.1.
# [2] = in vivo; conditions: BALB/c nude, mouse, in vivo, iv, total radioactivity
# Summary of the method: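 Tissue uptake given as % ID and % ID/g from γ counting of organs taken 4, 24 and 72 h after injection into BALB/c nude mice carrying subcutaneous AR42J xenografts (0.05-0.50 g). Tracers were ^177Lu-labelled at 95° C for 15 min in pH 4.5 NaOAc buffer and used neat or diluted in PBS containing 3 mg/mL ascorbate.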
Relative Binding Affinity SSTR2 [1],SMILES,tissue to tissue ratio at 24 h ([2]; T/K Tumor/Kidney ratio),tissue to tissue ratio at 24 h ([2]; T/L Tumor/Liver ratio),tissue to tissue ratio at 24 h ([2]; T/P Tumor/Pancreas ratio),tissue to tissue ratio at 24 h ([2]; T/Sp Tumor/Spleen ratio),tissue to tissue ratio at 24 h ([2]; T/St Tumor/Stomach ratio),tissue uptake at 24 h ([2]; uptake Kidney),tissue uptake at 24 h ([2]; uptake Liver),tissue uptake at 24 h ([2]; uptake Pancreas),tissue uptake at 24 h ([2]; uptake Spleen),tissue uptake at 24 h ([2]; uptake Stomach),tissue uptake at 24 h ([2]; uptake Tumor)
2.94,"C[C@@H](O)[C@H](NC(=O)[C@@H]1CSSC[C@H](NC(=O)[C@@H](Cc2ccccc2)NC(=O)COCCOCCNC(=O)COCCOCCNC(=O)[C@H](CCCCNC(=O)CC[C@H](NC(=O)CNC(=O)c2cccc(NC(=O)N[C@@H]3CN(C4CCCCC4)c4ccccc4N(CC(=O)C(C)(C)C)C3=O)c2)C(=O)O)NC(=O)CN2CCN(CC(=O)O)CCN(CC(=O)O)CCN(CC(=O)O)CC2)C(=O)N[C@@H](Cc2ccc(O)cc2)C(=O)N[C@H](Cc2c[nH]c3ccccc23)C(=O)N[C@@H](CCCCN)C(=O)N[C@@H]([C@@H](C)O)C(=O)N1)C(=O)O [Compound I-2, DOTA-K(-gE-G-Z360)-OEG-OEG-f[CYwKTC]T-OH]",–,–,–,–,–,–,–,–,–,–,–
–,"C[C@@H](O)[C@H](NC(=O)[C@@H]1CSSC[C@H](NC(=O)[C@@H](Cc2ccccc2)NC(=O)CNC(=O)[C@H](CO)NC(=O)CNC(=O)[C@H](CCCCNC(=O)c2cccc(NC(=O)N[C@@H]3CN(C4CCCCC4)c4ccccc4N(CC(=O)C(C)(C)C)C3=O)c2)NC(=O)CN2CCN(CC(=O)O)CCN(CC(=O)O)CCN(CC(=O)O)CC2)C(=O)N[C@@H](Cc2ccc(O)cc2)C(=O)N[C@H](Cc2c[nH]c3ccccc23)C(=O)N[C@@H](CCCCN)C(=O)N[C@@H]([C@@H](C)O)C(=O)N1)C(=O)O [Compound I-54, DOTA-K(Z360)-G-S-G-f[CYwKTC]T-OH] ({DOTA}-K([3Abz-CO-X1])GSG[dF]CY[dW]KTCT-OH; disulfide 6-11)",2.4,2.7,9.7,36,6.3,10.5 %ID/g,9.6 %ID/g,2.65 %ID/g,0.71 %ID/g,4.1 %ID/g,25.8 %ID/g
–,"C[C@@H](O)[C@H](NC(=O)[C@@H]1CSSC[C@H](NC(=O)[C@@H](Cc2ccccc2)NC(=O)CNC(=O)COCCOCCNC(=O)[C@H](CCCCNC(=O)c2cccc(NC(=O)N[C@@H]3CN(C4CCCCC4)c4ccccc4N(CC(=O)C(C)(C)C)C3=O)c2)NC(=O)CN2CCN(CC(=O)O)CCN(CC(=O)O)CCN(CC(=O)O)CC2)C(=O)N[C@@H](Cc2ccc(O)cc2)C(=O)N[C@H](Cc2c[nH]c3ccccc23)C(=O)N[C@@H](CCCCN)C(=O)N[C@@H]([C@@H](C)O)C(=O)N1)C(=O)O [Compound I-53, DOTA-K(Z360)-OEG-G-f[CYwKTC]T-OH]",2.3,6.3,18,52,4.8,7.15 %ID/g,2.57 %ID/g,0.91 %ID/g,0.31 %ID/g,3.36 %ID/g,16.2 %ID/g
